In paper PMC6141027:

Biological target: griffithsin (GRFT)
Assay: AUC

griffithsin (GRFT) (natural protein) was tested, and the stoichiometry N was 2.
